The text below walks through data of the supplement of paper PMC6755084.

B1: F1*; the commonest letter at each place (parent)
chain: GAGACCGCAACTGAAAAGTTGTTATCACTTGTCGTAAGACACTTTGGATGGGTTGAAGTTCTGCACGTAGAAGCAAAAGGC

In the series the parent is B1. As to the kind of experiment: fraction ligated after 30 min (ligated reads / total reads); higher = more ligase activity. The settings on record: with F1*sub RNA substrate (template-directed ligation), 42 °C. Put shortly: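 Oligo-pool templates of ligase ribozyme variants were PCR-amplified, T7-transcribed and gel-purified. Ligated and unligated bands were gel-separated, reverse transcribed with barcoded primers, and MiSeq-sequenced; core bases were filtered at quality ≥20. Fraction ligated per variant was ligated reads over total reads.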
Turning to GAGACCGCAACTGAAAAGTTGTTATCACTTGTGGTAAGACACTTTGAATGGGTTGAAGTTCTGCACGTAGAAGCAAAAGGC [C33G G47A], the fraction ligated was 0.791.

For GAGACCGCAACTGAAAAGTTGTTATCACTGGTCGTAAGACACTTTGGATGGGTTGTAGTTCTGCACGTAGAAGCAAAAGGC [T30G A56T], the fraction ligated is 0.797.

As for GAGACCGCAACTGAAAAGTTGTTATCACTTGTCGAAAGACACTTTAGATGGGTTGAAGTTCTGCACGTAGAAGCAAAAGGC [T35A G46A], the fraction ligated came to 0.837.

In the case of GAGACCGCAACTGAAAAGTTGTTATCTCTTGTAGTAAGACACTTTGGATGGGTTGAAGTTCTGCACGTAGAAGCAAAAGGC [A27T C33A], the fraction ligated amounted to 0.84.

As for GAGACCGCAACTGAAAAGTTGTTATCACTCGTCGTACGACACTTTGGATGGGTTGAAGTTCTGCACGTAGAAGCAAAAGGC [T30C A37C], the fraction ligated amounted to 0.794.

Regarding GAGACCGCAACTGAAAAGTTGTTATCACTTCTCGTAAGACAATTTGGATGGGTTGAAGTTCTGCACGTAGAAGCAAAAGGC [G31C C42A], the fraction ligated was determined as 0.82.

Regarding GAGACCGCAACTGAAAAGTTGTTATCACTTGTCGTAAGACACTGTGGATGGGTTCAAGTTCTGCACGTAGAAGCAAAAGGC [T44G G55C], the fraction ligated was 0.729.

As for GAGACCGCAACTGAAAAGTTGTTATCACGTGTCGTAAGACACTTTGGTTGGGTTGAAGTTCTGCACGTAGAAGCAAAAGGC [T29G A48T], the fraction ligated came out at 0.773.

With GAGACCGCAACTGAAAAGTTGTTATCGCTTGTCGTAAGACACTTTGAATGGGTTGAAGTTCTGCACGTAGAAGCAAAAGGC [A27G G47A], the fraction ligated is 0.805.

GAGACCGCAACTGAAAAGTTGTTACCACTTGCCGTAAGACACTTTGGATGGGTTGAAGTTCTGCACGTAGAAGCAAAAGGC [T25C T32C]: the fraction ligated is 0.762.

With GAGACCGCAACTGAAAAGTTGTTATCACTTGTCATAAGACACTTTGGATGGGTTGTAGTTCTGCACGTAGAAGCAAAAGGC [G34A A56T], the fraction ligated stood at 0.819.

GAGACCGCAACTGAAAAGTTGTTATCACTTGTCGTAAGACACTTTCGATGGGTTTAAGTTCTGCACGTAGAAGCAAAAGGC [G46C G55T]: the fraction ligated turned out to be 0.674.

On to GAGACCGCAACTGAAAAGTTGTTATCACTTTTCGTAAGACAGTTTGGATGGGTTGAAGTTCTGCACGTAGAAGCAAAAGGC [G31T C42G], for which the fraction ligated worked out at 0.809.

For the variant GAGACCGCAACTGAAAAGTTGTTATCACTTGTCGTAAGCCACTTTGGATGGGTTGGAGTTCTGCACGTAGAAGCAAAAGGC [A39C A56G], the fraction ligated is 0.779.

With GAGACCGCAACTGAAAAGTTGTTATCGCTTGTCGGAAGACACTTTGGATGGGTTGAAGTTCTGCACGTAGAAGCAAAAGGC [A27G T35G], the fraction ligated turned out to be 0.839.

Take GAGACCGCAACTGAAAAGTTGTTATGACTTGTCGTAAGACACTTTGGATGGGTTGAAGTTCTGCACGTAGAAGCAAAAGGC [C26G]: the fraction ligated was 0.773.

GAGACCGCAACTGAAAAGTTGTTATCACTTGGCGTAAGACACTTTGGATGGGTTGAAGTTCTGCACGTAGAAGCAAAAGGC [T32G]: the fraction ligated amounted to 0.828.

Turning to GAGACCGCAACTGAAAAGTTGTTATCACTTTTCGTTAGACACTTTGGATGGGTTGAAGTTCTGCACGTAGAAGCAAAAGGC [G31T A36T], the fraction ligated came to 0.785.

For the variant GAGACCGCAACTGAAAAGTTGTTATCACTTGTCGTACGACACATTGGATGGGTTGAAGTTCTGCACGTAGAAGCAAAAGGC [A37C T43A], the fraction ligated worked out at 0.832.

Consider GAGACCGCAACTGAAAAGTTGTCATCACTTGTCGTAAGACACTTTGTATGGGTTGAAGTTCTGCACGTAGAAGCAAAAGGC [T23C G47T], for which the fraction ligated is 0.0952.

As to GAGACCGCAACTGAAAAGTTGTTATCACTTGTCGTAAGACACGTTGGTTGGGTTGAAGTTCTGCACGTAGAAGCAAAAGGC [T43G A48T], the fraction ligated was found to be 0.668.

Turning to GAGACCGCAACTGAAAAGTTGTTATCACTTGTCGTAAGACACTTTTGACGGGTTGAAGTTCTGCACGTAGAAGCAAAAGGC [G46T T49C], the fraction ligated was determined as 0.148.

Take GAGACCGCAACTGAAAAGTTGTTATGACTTGTCGTAAGACACTTTGCATGGGTTGAAGTTCTGCACGTAGAAGCAAAAGGC [C26G G47C]: the fraction ligated was 0.404.

In the case of GAGACCGCAACTGAAAAGTTGTTATCACTTTTCGTAAGACACATTGGATGGGTTGAAGTTCTGCACGTAGAAGCAAAAGGC [G31T T43A], the fraction ligated stood at 0.778.

For the variant GAGACCGCAACTGAAAAGTTGTTATCACTTGTCGTAAGACACTTTGCATTGGTTGAAGTTCTGCACGTAGAAGCAAAAGGC [G47C G50T], the fraction ligated stood at 0.202.

Take GAGACCGCAACTGAAAAGTTGTTATCACTTTTCGTAAGCCACTTTGGATGGGTTGAAGTTCTGCACGTAGAAGCAAAAGGC [G31T A39C]: the fraction ligated came to 0.769.

In the case of GAGACCGCAACTGAAAAGTTGTTATCACTTCTCGTAAGACACTTTGGATGGGTTTAAGTTCTGCACGTAGAAGCAAAAGGC [G31C G55T], the fraction ligated worked out at 0.794.

As to GAGACCGCAACTGAAAAGTTGTTATCACTTGTCGTAAGACACTTCGGATCGGTTGAAGTTCTGCACGTAGAAGCAAAAGGC [T45C G50C], the fraction ligated was 0.0165.

GAGACCGCAACTGAAAAGTTGTTATAACTTGTCGTAAGACACTTTGGATAGGTTGAAGTTCTGCACGTAGAAGCAAAAGGC [C26A G50A]: the fraction ligated is 0.0155.

Take GAGACCGCAACTGAAAAGTTGTTATCACTTGTCGTAAGGCACTATGGATGGGTTGAAGTTCTGCACGTAGAAGCAAAAGGC [A39G T44A]: the fraction ligated is 0.816.

Consider GAGACCGCAACTGAAAAGTTGTTATCACTTGTCGTAAGACACTTTGGAGGGGTTTAAGTTCTGCACGTAGAAGCAAAAGGC [T49G G55T], for which the fraction ligated was 0.243.

With GAGACCGCAACTGAAAAGTTGTTATCACTTGTCGTAAAACACTTCGGATGGGTTGAAGTTCTGCACGTAGAAGCAAAAGGC [G38A T45C], the fraction ligated came out at 0.696.

Take GAGACCGCAACTGAAAAGTTGTTATCACTTGTCGTAAGACACTTTGAATCGGTTGAAGTTCTGCACGTAGAAGCAAAAGGC [G47A G50C]: the fraction ligated amounted to 0.386.

GAGACCGCAACTGAAAAGTTGTTATCACTTGTCGTATGACACTTTGGATCGGTTGAAGTTCTGCACGTAGAAGCAAAAGGC [A37T G50C]: the fraction ligated turned out to be 0.388.
